How the values were obtained:
CopY C101A [1] = biological target: T1, CopY C101A (Streptococcus pneumoniae D39, UniProt A0A0H2ZLC1 1-131, C101A); test: fluorescence anisotropy; Zn1 CopY dimer; 40 uM ZnSO4; 0.23 M NaCl; FA: 10 mM HEPES pH 7.0, 0.23 M NaCl, 2 mM TCEP, 40 uM ZnSO4 or 2 mM EDTA, 25 C; EMSA: 10 nM DNA, 25 mM HEPES pH 7.0, 200 mM NaCl, 5 mM MgCl2, 50 ug/mL BSA (apo: 5 mM EDTA), 25 C; conditions: protein: recombinant; tags: N-terminal His6-TEV, cleaved; three non-native N-terminal residues remain (printed GAM); chain copies: 2; label: 5' fluorescein on strand 1; blunt
CopY C101A [2] = biological target: T1, CopY C101A; test: EMSA; Zn1 CopY dimer; 5 mM MgCl2; 200 mM NaCl; FA: 10 mM HEPES pH 7.0, 0.23 M NaCl, 2 mM TCEP, 40 uM ZnSO4 or 2 mM EDTA, 25 C; EMSA: 10 nM DNA, 25 mM HEPES pH 7.0, 200 mM NaCl, 5 mM MgCl2, 50 ug/mL BSA (apo: 5 mM EDTA), 25 C; conditions: protein: recombinant; tags: N-terminal His6-TEV, cleaved; three non-native N-terminal residues remain (printed GAM); chain copies: 2; label: 5' fluorescein on strand 1; blunt

B1: 32-bp cop operator (single cop box) (dsDNA)
DNA 1: GTCTATAATTGACAAATGTAGATTTTAAGAGC
DNA 2: GCTCTTAAAATCTACATTTGTCAATTATAGAC
- Ka (CopY C101A [1]): 1e+07 M⁻¹
- Ka (CopY C101A [2]): 2e+07 M⁻¹
